Target: CH67 Fab, critical dipeptide VD changed to MD (human)
Experiment: BLI

HA A/Solomon Islands/03/2006 globular head (from UniProt A7Y8I1) (domain or fragment)
Kd: 8.5 µM | koff: 0.00478 s⁻¹ | kon: 56200 M⁻¹ s⁻¹

— paper PMC4441819
